The source of these data is the RNAGym collection of RNA variant scans (doi:10.7554/elife.80360).

The chains are these.
B1: HDV Ribozyme (parent)
chain: GGCCGGCAUGGUCCCAGCCUCCUCGCUGGCGCCGGCUGGGCAACAUUCCGAGGGGACCGUCCCCUCGGUAAUGGCGAAUGGGACCCA

Variants of B1 are the subject of the series. Put plainly: self-cleavage, relative activity (ratio to wild type); higher = more cleavage; co-transcriptional.
Take G34A G81A: the self-cleavage came to 0.128.

Turning to G34U U37C, the self-cleavage came to 0.148.

For the variant G1C G11A, the self-cleavage amounted to 0.0652. The value for G29C A71G was 0.

Regarding G29U G54C, the self-cleavage is 0.0282. For U9C U46C, the self-cleavage was determined as 0.831. Next, C63A A77G: 0.734; U23C G38U: 0.175; G31U C66G: 0.266. On to C4G U69C, for which the self-cleavage came to 0.308. Regarding C58G A77C, the self-cleavage came to 0.361. Next, A16C C48U: 0.677; C3U C19A: 0.0573; A42U A43G: 0.201.

Take A8G G74U: the self-cleavage was found to be 0.111.

Turning to G38U C75A, the self-cleavage was found to be 0.208. Consider G17U A56U, for which the self-cleavage was determined as 0.533. On to U12G C58A, for which the self-cleavage was 0.962. Next, G38A A43G: 0.155; U12A C49U: 0.499.

For the variant C3A C30G, the self-cleavage stood at 0.0166. The value for C15U G67A was 0.808.

For C15U G67U, the self-cleavage amounted to 0.972.

Turning to G2A A83U, the self-cleavage is 0.119. Take G31A A42G: the self-cleavage amounted to 0.116. On to G5C C86G, for which the self-cleavage is 0.113.

Consider U20G G82C, for which the self-cleavage came out at 0.246.

Consider U79G G82C, for which the self-cleavage was 0.119. On to G31U A71G, for which the self-cleavage was found to be 0.271.

For the variant G40A C57A, the self-cleavage amounted to 1.18.

As for C21U C61A, the self-cleavage is 0.176.

Regarding G17U G68A, the self-cleavage is 0.478. Regarding G25U A51U, the self-cleavage was 0.237. In the case of C15A G34C, the self-cleavage worked out at 0.256. In the case of G2U U46G, the self-cleavage stood at 0.0231. As to G40U A56U, the self-cleavage is 0.801. C19G G68A: the self-cleavage was found to be 0.021. In the case of A51U U60A, the self-cleavage came to 1.14. For the variant C4A C62U, the self-cleavage was 0.248.

With C41A A83C, the self-cleavage came to 0.312.

Turning to G28A U46G, the self-cleavage was 0.0665.

Take C30G G82A: the self-cleavage amounted to 0.0941. For the variant A8U G11C, the self-cleavage is 0.0978.

For the variant U27C C64G, the self-cleavage was 0.652.

Consider G67C A87G, for which the self-cleavage stood at 0.961. Next, A8U G82A: 0; C18G G52U: 0.203. Next, C13A C15G: 0.142; C36G C66U: 0.0997; U12G G80A: 0.906.

For U20C C22G, the self-cleavage worked out at 0.0554. As to C44U G80U, the self-cleavage worked out at 0.148. The value for C22U G40A was 0.643; that for U47A G53A was 1.22; that for G38A G73U was 0.0978. Consider G6C U27G, for which the self-cleavage stood at 0.0791. The value for A16U G17A was 0.712; that for A16C C22U was 0.369; that for C13U C22G was 0.0831.

Turning to C13U C22A, the self-cleavage was found to be 0.124.

On to C19U G39C, for which the self-cleavage turned out to be 0.133. In the case of A71U C85A, the self-cleavage turned out to be 1.08. In the case of G25A G82C, the self-cleavage was found to be 0.089. The value for C19A G34U was 0. As for G55A G82U, the self-cleavage was found to be 0.241.

Regarding U12C C33G, the self-cleavage was 0.101. Consider C7G C32A, for which the self-cleavage stood at 0.

As for C3U G67A, the self-cleavage amounted to 0.822. In the case of G10C C63G, the self-cleavage worked out at 0.852. In the case of G34U G54C, the self-cleavage stood at 0.0468. For C19G A83G, the self-cleavage was found to be 0.0678.

Take G31U G59C: the self-cleavage stood at 0.57. As to G2C A83C, the self-cleavage was found to be 0.0302. The value for C18A G76A was 0.0678; that for U46A G74A was 0.519.

For the variant C7U C66U, the self-cleavage is 0.665.

Consider U12G G55A, for which the self-cleavage turned out to be 0.703. Next, C48G G55C: 0.851; C22A G38A: 0.0608. Take U20G A43G: the self-cleavage is 0.104. Take G29A C61G: the self-cleavage stood at 0.107. In the case of C36U G52U, the self-cleavage was determined as 0.72. Consider G34U G82A, for which the self-cleavage turned out to be 0.123.

With U20G U23A, the self-cleavage amounted to 0. As for A43C C84G, the self-cleavage is 0.237. Turning to G73U G82A, the self-cleavage is 0.135. In the case of C44A A87G, the self-cleavage stood at 0.649.

As to U20G A87U, the self-cleavage was found to be 0.158.

Regarding C22G G76A, the self-cleavage was found to be 0.0354.

For the variant C62A, the self-cleavage stood at 0.979. With C15A C21U, the self-cleavage was 0.0415. The value for U23G G39C was 0.158; that for C41G C63A was 0.791; that for A70G G74C was 0.107.

As to G1A A78C, the self-cleavage was 0.0627.

Take G31A C36U: the self-cleavage is 0.241. Turning to C36U U72C, the self-cleavage turned out to be 0.102. Regarding C3U G34C, the self-cleavage turned out to be 0.182. With U20G G25A, the self-cleavage is 0. In the case of C36G A45G, the self-cleavage was found to be 0.185. On to C14U C48U, for which the self-cleavage was found to be 1.02.

Consider C64A G76C, for which the self-cleavage stood at 0.95.

On to C64A G76A, for which the self-cleavage was 0.997. Next, C19U G29A: 0.102. In the case of U65G G68C, the self-cleavage is 0.673. Turning to C13U A43C, the self-cleavage is 0.0791. The value for C58G C86A was 0.727.

In the case of C49A G55C, the self-cleavage is 0.927. As to U27G C30G, the self-cleavage came to 0.277. Take G17C C44U: the self-cleavage was found to be 0.142. Consider C14G G73C, for which the self-cleavage came to 0.0504. As for G10C C49U, the self-cleavage amounted to 0.89. For C19U A43G, the self-cleavage worked out at 0.0545. Consider U79C C85A, for which the self-cleavage stood at 0.389. Turning to A43C G80C, the self-cleavage turned out to be 0.194. As to C24A U27C, the self-cleavage worked out at 0.0791.

As for C13G G76C, the self-cleavage worked out at 0.217. As for G25U U79C, the self-cleavage was 0.115.

Regarding G74A C75U, the self-cleavage was found to be 0.141. Regarding A43G U65G, the self-cleavage worked out at 0.575. As for U9C U23C, the self-cleavage was found to be 1.06. On to C21A U37G, for which the self-cleavage was 0.208. The value for G35U A70U was 0.496. G25A C66G: the self-cleavage was found to be 0.376.

For the variant A51C A87C, the self-cleavage stood at 0.937. As for U27G C58U, the self-cleavage came out at 0.906.

A42G U69A: the self-cleavage is 0.554. Regarding C66A A71U, the self-cleavage amounted to 0.692. On to C15G C30G, for which the self-cleavage was determined as 0.317. As to U37A A42U, the self-cleavage was determined as 0.131. Take U12C G67A: the self-cleavage came out at 0.229.

Turning to C15U A51U, the self-cleavage came to 1.08. The value for G1A U12G was 0.554; that for G2U C33A was 0.043. Consider C44U C63U, for which the self-cleavage stood at 0.806.

Regarding U27C C32G, the self-cleavage stood at 0.217.

For the variant G28A G67A, the self-cleavage is 0.0936. On to G67U U72C, for which the self-cleavage is 0.53. Take C44A C85A: the self-cleavage was 0.656. Next, C33G A78C: 0; A51U A78G: 0.532; C4A G74C: 0.0997. Next, U20A C21G: 0.256; U27A G67U: 0.799.

Consider A8C G74A, for which the self-cleavage stood at 0.314. As for U37A C85A, the self-cleavage stood at 0.332. As for U46G G80A, the self-cleavage was determined as 0.0811. Turning to A70C G80U, the self-cleavage is 0.217.

On to C18U U72G, for which the self-cleavage is 0.287. On to A77U C84U, for which the self-cleavage turned out to be 0.489. For C22U C33G, the self-cleavage was determined as 0.163.

G38U G55U: the self-cleavage came to 0.21. With A43U U46A, the self-cleavage is 0.653. For the variant G35C A56U, the self-cleavage is 0.232. With U37A G54A, the self-cleavage amounted to 0.104. For the variant A43G A83U, the self-cleavage came to 0.266. Consider A16C C64G, for which the self-cleavage was determined as 0.554.

For the variant G68C U79A, the self-cleavage was 0.705. Regarding U27G G34C, the self-cleavage worked out at 0.0692. The value for G35U C64U was 0.449; that for U27G G53A was 0.923. For the variant G50C C84A, the self-cleavage was 0.743.

For C44U G73A, the self-cleavage stood at 0.946. For G54C C84U, the self-cleavage is 0.665.

Consider A51U C62A, for which the self-cleavage is 0.759. As to C24U U79A, the self-cleavage stood at 0.208. The value for C13A G80U was 0.0654.
